Data from article PMC4694752 (Molecular Biology of the Cell, 2016).

B1: GST-auxilin-TPR domain (aa 363–561) (domain or fragment, yeast, UniProt Q06677 363-561, looked up)
chain: TIPISDIELSGYNEFKAKGTSLFKNGDYINSLQEYEKSLNTLPLNHPLRIIALSNIIASQLKIGEYSKSIENSSMALELFPSSKAKWKNKISNSDPERSFNDIWPKIMIRRAESFEHLESFKKALETYQELIKKNFFDDKIMQGKRRCQDFINPPPVKKSMPVKKKTTTTSPATKKQNLTASSSNSPISVDSTSEIKKR
B2: His6-auxilin (natural protein, yeast, UniProt Q06677 1-668, looked up)
chain: MSDPFAHLLTSLKNKDSASASKETTPQSSNSPSITGSAVADVARTDKSPNDSLHSISAPPLIPSPKVDFSAPPLVPTNSTTKSNTANNTPPSALANTDDDFNQLFGMGTVTTTDTIQKPDEDYYGSKEDHLYNGDDALVDEVKDMEIARLMSLGLSIEEATEFYENDVTYERYLEILKSKQKERNDLAIRKKESGIKMEKSGLSNIVGTDSNNLFSMATDFFNKGKKLVDQWTSFPPEANDRLNNYSKTHDKVEDYDLPQVNDSPNRILFEDNEVVENLPPADNPDQDLLTDFETKIDITKRTAPDVSHSSSPTSGILIEENSRRNEPLIEDSLLDFSEGNLTNSKSNEDSTLFNENSNTDSTIPISDIELSGYNEFKAKGTSLFKNGDYINSLQEYEKSLNTLPLNHPLRIIALSNIIASQLKIGEYSKSIENSSMALELFPSSKAKWKNKISNSDPERSFNDIWPKIMIRRAESFEHLESFKKALETYQELIKKNFFDDKIMQGKRRCQDFINPPPVKKSMPVKKKTTTTSPATKKQNLTASSSNSPISVDSTSEIKKRELENAKLALYDKVFEKISSWKDGKDDDIRHLLANLSSLLTWCNWKDVSMQDLVMPKRVKITYMKAVAKTHPDKIPESLSLENKMIAENIFSTLSIAWDKFKLQNDIN

How the values were obtained:
Experiment in all cases: pull-down
His6-Sec31 (aa 1–500) = target: T1, His6-Sec31 (aa 1–500) (yeast, UniProt P38968 1-500)
T1 sequence (looked up): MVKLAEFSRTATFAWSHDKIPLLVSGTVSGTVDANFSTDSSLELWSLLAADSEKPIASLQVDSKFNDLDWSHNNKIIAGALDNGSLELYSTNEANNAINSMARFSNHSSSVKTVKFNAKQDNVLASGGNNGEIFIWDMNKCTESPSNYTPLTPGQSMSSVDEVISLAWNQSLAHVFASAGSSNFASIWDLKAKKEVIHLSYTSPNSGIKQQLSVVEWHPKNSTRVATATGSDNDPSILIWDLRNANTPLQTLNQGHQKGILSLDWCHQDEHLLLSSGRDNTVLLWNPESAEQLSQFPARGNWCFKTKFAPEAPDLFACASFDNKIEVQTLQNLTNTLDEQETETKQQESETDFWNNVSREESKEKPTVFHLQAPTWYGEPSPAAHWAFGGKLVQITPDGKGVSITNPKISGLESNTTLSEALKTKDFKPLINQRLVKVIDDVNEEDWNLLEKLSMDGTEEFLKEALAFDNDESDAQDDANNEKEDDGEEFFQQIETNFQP

GST-Sec24 = target: T2, GST-Sec24 (yeast, UniProt P40482 1-926)
T2 sequence (looked up): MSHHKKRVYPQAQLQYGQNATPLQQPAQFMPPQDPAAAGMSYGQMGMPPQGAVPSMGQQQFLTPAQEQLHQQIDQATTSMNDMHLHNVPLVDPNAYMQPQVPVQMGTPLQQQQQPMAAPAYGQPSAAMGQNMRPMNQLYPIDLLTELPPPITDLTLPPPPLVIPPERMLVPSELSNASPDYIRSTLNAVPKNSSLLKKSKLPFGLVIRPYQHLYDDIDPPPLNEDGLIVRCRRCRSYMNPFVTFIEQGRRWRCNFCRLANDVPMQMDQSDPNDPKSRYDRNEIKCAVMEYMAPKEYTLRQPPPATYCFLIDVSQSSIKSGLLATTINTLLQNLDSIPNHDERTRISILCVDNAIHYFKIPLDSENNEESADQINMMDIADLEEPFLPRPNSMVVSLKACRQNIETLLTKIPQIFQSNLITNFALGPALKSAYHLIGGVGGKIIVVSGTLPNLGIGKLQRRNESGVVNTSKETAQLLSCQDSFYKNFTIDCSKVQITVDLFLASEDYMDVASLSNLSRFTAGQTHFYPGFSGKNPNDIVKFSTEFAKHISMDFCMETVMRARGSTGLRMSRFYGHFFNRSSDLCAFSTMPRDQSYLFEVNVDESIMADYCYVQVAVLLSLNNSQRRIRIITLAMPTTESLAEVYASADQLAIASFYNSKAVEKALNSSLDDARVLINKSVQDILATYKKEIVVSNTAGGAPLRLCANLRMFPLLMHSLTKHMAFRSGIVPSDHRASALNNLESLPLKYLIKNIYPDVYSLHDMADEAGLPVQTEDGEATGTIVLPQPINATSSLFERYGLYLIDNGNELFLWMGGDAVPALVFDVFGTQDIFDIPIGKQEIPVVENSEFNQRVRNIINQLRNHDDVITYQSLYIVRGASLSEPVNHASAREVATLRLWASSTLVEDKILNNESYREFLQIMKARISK

GST-Sec23 = target: T3, GST-Sec23 (yeast, UniProt P15303 1-768)
T3 sequence (looked up): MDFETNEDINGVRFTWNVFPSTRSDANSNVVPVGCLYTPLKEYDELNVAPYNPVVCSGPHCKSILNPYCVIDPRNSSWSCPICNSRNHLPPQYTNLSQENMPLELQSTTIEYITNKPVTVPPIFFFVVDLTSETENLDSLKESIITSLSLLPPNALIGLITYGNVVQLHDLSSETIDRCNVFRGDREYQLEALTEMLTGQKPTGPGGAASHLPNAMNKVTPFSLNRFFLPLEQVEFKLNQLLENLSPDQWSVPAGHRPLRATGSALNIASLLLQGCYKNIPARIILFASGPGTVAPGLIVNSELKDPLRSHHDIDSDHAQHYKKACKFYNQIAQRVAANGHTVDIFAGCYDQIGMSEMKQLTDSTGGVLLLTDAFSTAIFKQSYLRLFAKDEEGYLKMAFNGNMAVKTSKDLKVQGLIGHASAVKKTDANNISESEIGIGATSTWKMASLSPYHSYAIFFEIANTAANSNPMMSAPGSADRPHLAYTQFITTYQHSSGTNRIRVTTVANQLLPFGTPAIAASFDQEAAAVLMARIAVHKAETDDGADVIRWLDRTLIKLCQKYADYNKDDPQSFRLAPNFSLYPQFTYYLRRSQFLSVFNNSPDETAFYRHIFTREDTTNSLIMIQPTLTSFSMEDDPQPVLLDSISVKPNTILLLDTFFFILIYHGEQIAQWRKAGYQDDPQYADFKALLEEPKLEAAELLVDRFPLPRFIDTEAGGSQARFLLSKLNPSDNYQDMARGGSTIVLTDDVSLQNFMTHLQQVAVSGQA

Row | Binder | binding result (His6-Sec31 (aa 1–500)) | binding result (GST-Sec24) | binding result (GST-Sec23)
1 | B1 | binds |  | 
2 | B2 |  | binds | binds
